Test results from the supplement of paper PMC9170038.

Test system: K4 kissing-loop RNA reporter
Assay: apparent KD of K4 kissing-loop reporter; higher = weaker reporter binding
Details: Eterna round: R107
Method: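 RNA-MaP round R107: designed RNA switches with theophylline, tryptophan, arginine or FMN aptamers are transcribed on-chip within common flanks. They are titrated with a labelled K4 kissing-loop RNA reporter in RNA-MaP buffer (100 mM Tris pH 7.5, 80 mM KCl, 4 mM MgCl2), without ligand or with the indicated ligand. Median apparent KD per design.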

[1] = input ligand: theophylline 20 uM
[2] = input ligand: tryptophan 2.4 mM
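Note: bound reporter read as fluorescence of individual clusters on recovered sequencing chips by microscopy, with normalized cluster intensities fitted with a binding model.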

## UGUUACCAGUGAUGUUGGGAGAUGAAGAGCAAGGAUAUGUGAUAGUACAGAAGGUGCGUCGUCGUGAUUAUCACGCUCUGUGUUA [theeternabot_exclusion_KL_FMN_A_8]
Input ligand: FMN 200 uM
  apparent KD of K4 kissing-loop reporter: 266 nM
Input ligand: arginine 13.2 mM
  apparent KD of K4 kissing-loop reporter: 98.3 nM
Input ligand: none
  apparent KD of K4 kissing-loop reporter: 141 nM
[1]
  apparent KD of K4 kissing-loop reporter: 138 nM
[2]
  apparent KD of K4 kissing-loop reporter: 111 nM

## UAGUCAUACAGAGGAUAUCGUAUGAGUGAUGUUCAUACGACAUAAUCAAAUUGUAUUGAUGUUCGACGAGAAGGCUGUAUGACUA [FMN B Ex t1]
Input ligand: FMN 200 uM
  apparent KD of K4 kissing-loop reporter: 221 nM
Input ligand: arginine 13.2 mM
  apparent KD of K4 kissing-loop reporter: 103 nM
Input ligand: none
  apparent KD of K4 kissing-loop reporter: 124 nM
[1]
  apparent KD of K4 kissing-loop reporter: 117 nM
[2]
  apparent KD of K4 kissing-loop reporter: 124 nM

## AUGUCUUAUAAACUCAUGGUUUCGAUCGAUACCAGUAGCGAGAGUUACCCUUGGCAGCGACAUGAGUGAUGUUCAUGUACGAAGA [KL-XTheoA5]
Input ligand: FMN 200 uM
  apparent KD of K4 kissing-loop reporter: 109 nM
Input ligand: arginine 13.2 mM
  apparent KD of K4 kissing-loop reporter: 98.7 nM
Input ligand: none
  apparent KD of K4 kissing-loop reporter: 103 nM
[1]
  apparent KD of K4 kissing-loop reporter: 106 nM
[2]
  apparent KD of K4 kissing-loop reporter: 90 nM

## AAGUCAUAGGCAGGAUAUGCAUAGUAAUAAGGCCAUAUAUACGUAUAGAGUGAUGUUUUGUACCAGGCAGAAGGGCUACAUCAGU [FMN B Excl V7 (+3A)]
Input ligand: FMN 200 uM
  apparent KD of K4 kissing-loop reporter: 550 nM
Input ligand: arginine 13.2 mM
  apparent KD of K4 kissing-loop reporter: 506 nM
Input ligand: none
  apparent KD of K4 kissing-loop reporter: 594 nM
[1]
  apparent KD of K4 kissing-loop reporter: 643 nM
[2]
  apparent KD of K4 kissing-loop reporter: 470 nM

## CCUUCUCUUGAUAGUGAUGUUAUCGAGGACAAGGAUAUCAUCUCAAUGAGAAGGUGUCCUUGAUAACAUGGAGGUCUGAAACAGA [Omei KL FMN A Exc C v9]
Input ligand: FMN 200 uM
  apparent KD of K4 kissing-loop reporter: 205 nM
Input ligand: arginine 13.2 mM
  apparent KD of K4 kissing-loop reporter: 355 nM
Input ligand: none
  apparent KD of K4 kissing-loop reporter: 439 nM
[1]
  apparent KD of K4 kissing-loop reporter: 427 nM
[2]
  apparent KD of K4 kissing-loop reporter: 454 nM

## UGAUACCAGACUGAUACCAGCGAGUGAUGUUCGCUGAAAUCAGGGUCAAAGACCCUGUCUCGCCCUUGGCAGCAGUCUGGUAUCU [TheoBX 20 #SwitchBubble #StaticStem]
Input ligand: FMN 200 uM
  apparent KD of K4 kissing-loop reporter: 147 nM
Input ligand: arginine 13.2 mM
  apparent KD of K4 kissing-loop reporter: 120 nM
Input ligand: none
  apparent KD of K4 kissing-loop reporter: 133 nM
[1]
  apparent KD of K4 kissing-loop reporter: 185 nM
[2]
  apparent KD of K4 kissing-loop reporter: 128 nM

## GCCUAGGCUCGAAAGAGCCUAGGCUUGUCUCAGGAUAUCUGGAAACAGAGAAGGGAGCUACUAGUGAUGUUAGGAAUUCCCUAAG
Input ligand: FMN 200 uM
  apparent KD of K4 kissing-loop reporter: 149 nM
Input ligand: arginine 13.2 mM
  apparent KD of K4 kissing-loop reporter: 122 nM
Input ligand: none
  apparent KD of K4 kissing-loop reporter: 112 nM
[1]
  apparent KD of K4 kissing-loop reporter: 92.3 nM
[2]
  apparent KD of K4 kissing-loop reporter: 98 nM

## UGUACCGAGUCAGGAUAUCAUAAUAAAUCCAGUGAUGUUGGAAUAACCAGUACAAAGUACUGGCCUUGAGAAGGGACUUGGUACU [FmnBS 3 #SwitchBubble #StaticStem]
Input ligand: FMN 200 uM
  apparent KD of K4 kissing-loop reporter: 167 nM
Input ligand: arginine 13.2 mM
  apparent KD of K4 kissing-loop reporter: 146 nM
Input ligand: none
  apparent KD of K4 kissing-loop reporter: 163 nM
[1]
  apparent KD of K4 kissing-loop reporter: 147 nM
[2]
  apparent KD of K4 kissing-loop reporter: 147 nM

## UGUCAUUGGUCGGCCGCCACUAGGACCGGGUAUAACCUAGUGAUGUUAGUAAGUACGGCCGCCACUAGGACCGGGACCGAUGACU [KL-SSTryp-B19 #DoubleAptamer]
Input ligand: FMN 200 uM
  apparent KD of K4 kissing-loop reporter: 484 nM
Input ligand: arginine 13.2 mM
  apparent KD of K4 kissing-loop reporter: 369 nM
Input ligand: none
  apparent KD of K4 kissing-loop reporter: 583 nM
[1]
  apparent KD of K4 kissing-loop reporter: 462 nM
[2]
  apparent KD of K4 kissing-loop reporter: 87.5 nM

## AAAUAAAGCAGUCACCCAGUGAUGUUGGAAGGAGCGUGCGAAAGCACAGGUAGGUCGCCGAUAGGACAAAGUCCAAGUGGCUGCA [#SwitchBubble 30 #K4Early]
Input ligand: FMN 200 uM
  apparent KD of K4 kissing-loop reporter: 625 nM
Input ligand: arginine 13.2 mM
  apparent KD of K4 kissing-loop reporter: 437 nM
Input ligand: none
  apparent KD of K4 kissing-loop reporter: 487 nM
[1]
  apparent KD of K4 kissing-loop reporter: 297 nM
[2]
  apparent KD of K4 kissing-loop reporter: 318 nM

## UUAGAGAUCUCAGGAUAUGAGUGAUGUUGAUAUCAAGAUCUGAGAUAGAAUUCUAUCUCAGAUCAAUCAGAAGGGAGAUCUCAUU [AK1.3 Exc FMN B]
Input ligand: FMN 200 uM
  apparent KD of K4 kissing-loop reporter: 172 nM
Input ligand: arginine 13.2 mM
  apparent KD of K4 kissing-loop reporter: 109 nM
Input ligand: none
  apparent KD of K4 kissing-loop reporter: 194 nM
[1]
  apparent KD of K4 kissing-loop reporter: 411 nM
[2]
  apparent KD of K4 kissing-loop reporter: 263 nM

## GCGCGUCAUGUCAGCGGUGACUAUGUCGAUACCAGCAGGGAAACCUGCCCUUGGCAGCGACGCGCUGGAGUGAUGUUCCGACGGC [#2 Exclusion - Theophylline A Attempt #8 (HarryS)]
Input ligand: FMN 200 uM
  apparent KD of K4 kissing-loop reporter: 165 nM
Input ligand: arginine 13.2 mM
  apparent KD of K4 kissing-loop reporter: 153 nM
Input ligand: none
  apparent KD of K4 kissing-loop reporter: 154 nM
[1]
  apparent KD of K4 kissing-loop reporter: 173 nM
[2]
  apparent KD of K4 kissing-loop reporter: 145 nM

## CGCGUACAGUGUUCUACGGCCGAGAGUGAUACCAGCCGUAUUUGUGGCCCUUGGCAGCGCAGAUGCAGUGAUGUUGCAUACUUGG [Same State Theophylline A GF 21]
Input ligand: FMN 200 uM
  apparent KD of K4 kissing-loop reporter: 98.6 nM
Input ligand: arginine 13.2 mM
  apparent KD of K4 kissing-loop reporter: 139 nM
Input ligand: none
  apparent KD of K4 kissing-loop reporter: 135 nM
[1]
  apparent KD of K4 kissing-loop reporter: 149 nM
[2]
  apparent KD of K4 kissing-loop reporter: 85.4 nM

## UGGAUAUAGUGAUGUUAUAUAGAGAUGGAUACCAGCUAAGAGAAUAGCCCUUGGCAGCCGAAAGAAGUAUCAUUAGAGAAGAAUG [ExTheophyl.Ae]
Input ligand: FMN 200 uM
  apparent KD of K4 kissing-loop reporter: 294 nM
Input ligand: arginine 13.2 mM
  apparent KD of K4 kissing-loop reporter: 231 nM
Input ligand: none
  apparent KD of K4 kissing-loop reporter: 280 nM
[1]
  apparent KD of K4 kissing-loop reporter: 253 nM
[2]
  apparent KD of K4 kissing-loop reporter: 212 nM

## GUUGACAGACUGCAAAACUAGUCAACAGACUAGGAUAUCAGGAAACUGAGAAGGAGUCAAGUUGCAGUGAUGUUGCAAGAAUAAU [KL-SSFMN-A27]
Input ligand: FMN 200 uM
  apparent KD of K4 kissing-loop reporter: 137 nM
Input ligand: arginine 13.2 mM
  apparent KD of K4 kissing-loop reporter: 182 nM
Input ligand: none
  apparent KD of K4 kissing-loop reporter: 173 nM
[1]
  apparent KD of K4 kissing-loop reporter: 214 nM
[2]
  apparent KD of K4 kissing-loop reporter: 136 nM
